This is an account of results in patent publication US20240059799A1 (Pfizer, published 2024).

One assay has as its target T1, mouse IL-23 (mouse, UniProt P43432 23-335; Q9EQ14 22-196).
T1 sequence 1: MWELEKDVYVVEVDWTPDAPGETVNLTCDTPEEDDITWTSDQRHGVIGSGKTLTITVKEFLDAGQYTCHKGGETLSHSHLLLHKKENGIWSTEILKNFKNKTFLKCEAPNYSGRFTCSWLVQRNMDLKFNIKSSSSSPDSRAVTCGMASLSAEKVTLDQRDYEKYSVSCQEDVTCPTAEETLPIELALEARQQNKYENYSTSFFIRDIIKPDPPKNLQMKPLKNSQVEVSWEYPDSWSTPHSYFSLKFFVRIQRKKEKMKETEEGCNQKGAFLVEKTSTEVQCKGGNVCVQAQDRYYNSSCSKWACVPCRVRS
T1 sequence 2: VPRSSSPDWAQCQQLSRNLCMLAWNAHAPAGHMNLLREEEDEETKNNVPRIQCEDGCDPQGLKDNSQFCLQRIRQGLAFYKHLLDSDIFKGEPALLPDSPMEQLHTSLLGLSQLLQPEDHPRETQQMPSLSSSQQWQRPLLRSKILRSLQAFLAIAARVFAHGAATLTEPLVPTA
The experiment in a line: SPR, antibody captured by anti-human Fc, cytokine injected. As to the method:
(§1) In order to determine binding to TL1A, kinetic assays were conducted at 37° C. using a collection rate of 10 Hz on a Biacore™ T200 instrument (GE Healthcare). […] For the analysis of the p40 binding arm, kinetic assays were conducted at 37° C. using a collection rate of 10 Hz on a Biacore™ 8 K+ instrument (GE Healthcare).
In general terms: SPR reads the build-up and loss of mass on a sensor chip optically.

A further assay concerns the target T2, rabbit IL-23 (rabbit).
T2 chain 1: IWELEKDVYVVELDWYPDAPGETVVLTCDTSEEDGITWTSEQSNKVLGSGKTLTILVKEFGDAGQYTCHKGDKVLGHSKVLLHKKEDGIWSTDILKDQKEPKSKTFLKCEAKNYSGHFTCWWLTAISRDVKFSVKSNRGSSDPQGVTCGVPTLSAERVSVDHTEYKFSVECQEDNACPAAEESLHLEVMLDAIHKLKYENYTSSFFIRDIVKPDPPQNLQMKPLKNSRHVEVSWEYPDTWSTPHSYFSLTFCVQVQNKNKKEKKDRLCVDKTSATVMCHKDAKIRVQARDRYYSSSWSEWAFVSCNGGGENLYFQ
T2 chain 2: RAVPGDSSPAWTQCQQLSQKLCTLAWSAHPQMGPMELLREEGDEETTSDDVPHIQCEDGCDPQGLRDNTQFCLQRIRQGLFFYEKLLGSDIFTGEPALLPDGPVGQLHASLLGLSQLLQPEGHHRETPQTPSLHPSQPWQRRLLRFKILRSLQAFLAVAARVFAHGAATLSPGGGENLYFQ
Described as above. As to the method:
as §1

A further assay concerns the target T3, mouse IL-12 (mouse, UniProt P43432 23-335; P43431 23-215).
T3 sequence 1: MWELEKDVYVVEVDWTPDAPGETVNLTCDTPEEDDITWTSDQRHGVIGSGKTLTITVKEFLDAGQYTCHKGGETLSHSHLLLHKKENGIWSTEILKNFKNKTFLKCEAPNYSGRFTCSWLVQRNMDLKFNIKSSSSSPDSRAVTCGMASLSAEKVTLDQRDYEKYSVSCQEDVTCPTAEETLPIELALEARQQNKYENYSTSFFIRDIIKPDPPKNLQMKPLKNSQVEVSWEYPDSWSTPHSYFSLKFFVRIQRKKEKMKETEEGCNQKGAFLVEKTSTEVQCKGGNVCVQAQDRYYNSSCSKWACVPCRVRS
T3 sequence 2: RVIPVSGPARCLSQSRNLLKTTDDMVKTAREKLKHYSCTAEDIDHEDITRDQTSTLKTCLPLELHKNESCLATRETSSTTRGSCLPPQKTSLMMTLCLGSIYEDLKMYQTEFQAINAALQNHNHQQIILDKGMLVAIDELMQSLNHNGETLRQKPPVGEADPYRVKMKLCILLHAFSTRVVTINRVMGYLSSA
The description is as above. The protocol: as §1

The target of the next assay is T4, rabbit IL-12 (rabbit).
T4 chain 1: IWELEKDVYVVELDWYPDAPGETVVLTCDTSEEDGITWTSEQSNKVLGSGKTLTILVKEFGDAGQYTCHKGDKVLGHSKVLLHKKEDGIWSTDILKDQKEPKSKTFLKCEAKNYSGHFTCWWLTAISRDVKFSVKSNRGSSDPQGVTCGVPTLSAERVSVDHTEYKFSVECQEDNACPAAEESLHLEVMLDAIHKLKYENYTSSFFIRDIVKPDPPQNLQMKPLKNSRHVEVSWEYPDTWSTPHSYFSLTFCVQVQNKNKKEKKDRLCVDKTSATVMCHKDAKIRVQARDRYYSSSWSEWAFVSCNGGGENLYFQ
T4 chain 2: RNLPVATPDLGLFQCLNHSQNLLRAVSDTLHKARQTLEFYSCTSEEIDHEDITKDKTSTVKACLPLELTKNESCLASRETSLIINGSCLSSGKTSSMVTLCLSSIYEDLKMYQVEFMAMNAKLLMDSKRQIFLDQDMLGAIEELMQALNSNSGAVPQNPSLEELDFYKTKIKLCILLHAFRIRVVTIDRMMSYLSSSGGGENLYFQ
The description is as above. As to the method: as §1

In a further assay the target is T5, recombinant rat TL1A (rat, UniProt Q8K3Y7 76-252).
T5 construct: biotinylated for SPR capture
T5 sequence: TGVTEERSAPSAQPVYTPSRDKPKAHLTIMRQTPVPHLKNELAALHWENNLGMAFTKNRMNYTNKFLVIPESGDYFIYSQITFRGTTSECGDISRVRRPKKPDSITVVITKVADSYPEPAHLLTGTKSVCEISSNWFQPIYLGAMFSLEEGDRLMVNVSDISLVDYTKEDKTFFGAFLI
Kind of assay: SPR, antibody injected over captured biotinylated TL1A, 37° C. As to the method: (§2) For these analyses, kinetic assays were conducted at 37° C. using a collection rate of 10 Hz on a Biacore™ T200 instrument (GE Healthcare). […] The association phase was 90 seconds, and the dissociation phases were 1600 seconds over human, cynomolgus monkey and rabbit TL1A and 180 seconds for mouse and rat TL1A.
(§3) In order to determine binding to TL1A, kinetic assays were conducted at 37° C. using a collection rate of 10 Hz on a Biacore™ T200 instrument (GE Healthcare).

The target in another assay is T6, recombinant mouse TL1A (mouse, UniProt Q5UBV8 75-252).
T6 construct: biotinylated for SPR capture
T6 chain: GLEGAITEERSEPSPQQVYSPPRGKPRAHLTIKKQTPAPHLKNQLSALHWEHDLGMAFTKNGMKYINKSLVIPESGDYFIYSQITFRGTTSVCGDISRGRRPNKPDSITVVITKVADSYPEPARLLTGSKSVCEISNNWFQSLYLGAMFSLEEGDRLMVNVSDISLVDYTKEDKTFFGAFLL
The assay is described as above. As to the method: as §2, §3

B1: p40TL1A-0033 (bispecific antibody, human IgG1, kappa)
chain 1: not shown
chain 2: QVQLVQSGAEVKKPGASVKVSCKASGYDYTYYGISWVRQAPGQGLEWMGWISTYNTGTHYAPSLQGRVTMTTDTSTSTAYMELRSLRSDDTAVYYCARESYYGSGAFRGGMDVWGQGTTVTVSSASTKGPSVFPLAPSSKSTSGGTAALGCLVKDYFPEPVTVSWNSGALTSGVHTFPAVLQSSGLYSLSSVVTVPSSSLGTQTYICNVNHKPSNTKVDKKVEPKSC
heavy: EVQLVQSGAEVKKPGESLKISCKGSGYSFTTYWLGWVRQMPGKGLDWIGIMSPVDSDIRYSPSFQGQVTMSVDKSITTAYLQWNSLKASDTAMYYCARRRPGQGYFDFWGQGTLVTVSSASTKGPSVFPLAPSSKSTSGGTAALGCLVKDYFPEPVTVSWNSGALTSGVHTFPAVLQSSGLYSLSSVVTVPSSSLGTQTYICNVNHKPSNTKVDKKVEPKSCDKTHTCPPCPAPEAAGAPSVFLFPPKPKDTLMISRTPEVTCVVVDVSHEDPEVKFNWYVDGVEVHNAKTKPREEQYNSTYRVVSVLTVLHQDWLNGKEYKCKVSNKALPAPIEKTISKAKGQPREPQVCTLPPSREEMTKNQVSLWCLVKGFYPSDIAVEWESNGQPENNYKTTPPVLDSDGSFFLYSKLTVDKSRWQQGNVFSCSVLHEALHSHYTQKSLSLSPGK
light: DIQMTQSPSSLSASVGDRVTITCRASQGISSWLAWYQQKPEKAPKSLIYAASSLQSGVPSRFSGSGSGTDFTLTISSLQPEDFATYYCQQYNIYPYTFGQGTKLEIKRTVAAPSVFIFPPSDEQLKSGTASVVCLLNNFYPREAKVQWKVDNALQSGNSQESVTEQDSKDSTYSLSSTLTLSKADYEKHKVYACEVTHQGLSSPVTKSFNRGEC
notes: KiH modified-Fd bispecific: TL1A VL-CL-Fc (hole), TL1A mFd, p40 HC (knob), p40 LC; LS
As to B1, the binding result was “no binding (tested: 200 nM)” with mouse IL-23; “no binding (tested: 200 nM)” in the assay with rabbit IL-23; “no binding (tested: 200 nM)” in the assay with mouse IL-12; “no binding (tested: 200 nM)” in the assay with rabbit IL-12; “binds” in the assay with recombinant rat TL1A; “binds” in the assay with recombinant mouse TL1A.
